Consider 14 sequences from the DeepSol protein solubility set.

The nature of the data set: soluble on expression in E. coli; label from the status in PepcDB or PDB records.
In the case of “MALTDRLLDAWYKGHPALTLLRPLESLYRRVVDGKRAKFLAGEGDIYRAPVPVIVVGNITIGGTGKTPLILWMIEHCQRKGLRVGVVSRGYGAKPPSLPWRVQPDQSASEAGDEPLLIVQRSGVPLMIDPDRSRAVQALLAAEPLDLILSDDGLQHYRLARDLELVLIDAARGLGNRRCLPAGPLREPVERLSSVDALLYNGATADRDDGYAFTLKPSALINLRSGERQPVSYFPAGQALHAVAGIGNPQRFFNTLEGLHWRPVTHAFADHALYSVQALTFTPALPLVMTEKDAVKCRAFAADDWWYLAVDAVPSDAFVGWFDEQLLRLSPLEHHHHHH”, the “soluble on expression in E. coli” value was “not soluble”.
With “MGSDKIHHHHHHMNIIIIGAQASGKMTIGQEIAKQTGMTLFHNHDSIDFVLRFMPWSPDSIALTESIRFKFFETFAKTGQEMIFTIVIDFNDSRDVVFLEKIQIVFQSHNQEVLFVELETELSERLKRNRTENRLKHKPSKRDIKWSESDICSTMDYAIFNPEVAPEALTYYHKINNTCLTATETAYLIIQKINQIKEKN” the entry was “not soluble”; with “MLNDVFILTQIKEGNIKAFETLFRQYYTPLRLYAASITGVPDVAEEIVEELFYVFWKDREKLEIFHSVKNYLYRSVRNRSIQYCEHQDVKRRYQDAILSVPVNIASPDPQEQIEYKELQQIINRTLEKLPERRLHIFRLHHTEGKKYSEIASLLSLSVKTVEKEMTRALRTLRKEIENYIQIS”, “not soluble”; with “MSEFSQTALFPSLPRTARGTAVVLGNTPAGDKIQYCNGTSVYTVPVGSLTDTEIYTEHSHQTTVAKTSPSGYYCASGDVHGNVRIWDTTQTTHILKTTIPVFSGPVKDISWDSESKRIAAVGEGRERFGHVFLFDTGTSNGNLTGQARAMNSVDFKPSRPFRIISGSDDNTVAIFEGPPFKFKSTFGEHTKFVHSVRYNPDGSLFASTGGDGTIVLYNGVDGTKTGVFEDDSLKNVAHSGSVFGLTWSPDGTKIASASADKTIKIWNVATLKVEKTIPVGTRIEDQQLGIIWTKQALVSISANGFINFVNPELGSIDQVRYGHNKAITALSSSADGKTLFSADAEGHINSWDISTGISNRVFPDVHATMITGIKTTSKGDLFTVSWDDHLKVVPAGGSGVDSSKAVANKLSSQPLGLAVSADGDIAVAACYKHIAIYSHGKLTEVPISYNSSCVALSNDKQFVAVGGQDSKVHVYKLSGASVSEVKTIVHPAEITSVAFSNNGAFLVATDQSRKVIPYSVANNFELAHTNSWTFHTAKVACVSWSPDNVRLATGSLDNSVIVWNMNKPSDHPIIIKGAHAMSSVNSVIWLNETTIVSAGQDSNIKFWNVPF”, “soluble”.
Next, “MGSDKIHHHHHHMIKNTIKKLIEHSIYTTFKLLSKLPNKNLIYFESFHGKQYSDNPKALYEYLTEHSDAQLIWGVKKGYEHIFQQYNVPYVTKFSMKWFLAMPRAKAWMINTRTPDWLYKSPRTTYLQTWHGTPLKKIGLDISNVKMLGTNTQNYQDGFKKESQRWDYLVSPNPYSTSIFQHAFHVSRDKILETGYPRNDKLSHKRNDTEYINGIKTRLNIPLDKKVIMYAPTWRDDEAIREGSYQFNVNFDIEALRQALDDDYVILLRMHYLVVTRIDEHDDFVKDVSDYEDISDLYLISDALVTDYSSVMFDFGVLKRPQIFYAYDLDKYGDELRGFYMDYKKELPGPIVENQTALIDALKQIDETANEYIEARTVFYQKFCSLEDGQASQRICQTIFK”: “not soluble”.
Next, “MASTSAATPLKNKRKFENGKKKPKTLKDEFGEKLDIKPVIVPPKPADEYDYDSSDEEDLRNTIGNIPIKWYDDEDHIGYDKFGEKIAKPAKKGEIETFLEKMEDPDYWRKVFDKQTGTDVKLTDEQIEKIHNIATGKYPTIGYNPYEPFLDIFSSQKEIHPIDNRPEPKSRFIPSKDEMRMVSRMVHAIKMGWAKGPRAKKEEHKSYDLWASEDALDNVTKSQLSRMRVHMPAPKVALPTHAESYNPPEEYIFDDEERKKWEEAEKEDRVLNFMPSKYDALRKVPQYDKFITERFERCLDLYLAPRQRKMRIHADPTDLLPDLPNPNDLRPFPTTLAFYMRGHTGQVRAITVEPERGELLASGGEDGTVRIWMIATGRCIKTFQMDGEVTSVSFSPVADRTLLAVAYEGKYVAILNTGCGDRLHVQQTEALLAETPTDAQEDGAVVTWRKSKEKLMLKMPNEVRQVTWHSKGDYFASVAIDDIAKSVYVHQLSKAKSQCPFQKRKGHVQAVTFHPTQARLFVATKIHVREYDLARCVLVKKLITGCKHISTMATDANGENLFLGGLDRRFCWMDLQMGNKPWKKLKHHTAAVRSVAYHKKYPLLATVSDDGTAMVYYARIYTDFVKDNELYPVKRLRAHEKTPNDLCMLHTTWHPTQPWLITAGADGTIALFTY”: “not soluble”; “MYIILVYDIGEKRVGKMLKLCRKYLNWIQNSVFEGEISEVKLLELKSRAAGIMEKEEDSLIIFSSRQERWLEKEIIGKERSATDIFL”: “not soluble”; “SAAGSEATTPVIVAAGAGGEEGEHVKPFKPEKAKEIIMSLQQPAIFCNMVFDWPARHWNAKYLSQVLHGKQIRFRMGMKSMSTVPQFETTCNYVEATLEEFLTWNCDQSSISGPFRDYDHSKFWAYADYKYFVSLFEDKTDLFQDVKWSDFGFPGRNGQESTLWIGSLGAHTPCHLDSYGCNLVFQVQGRLECNGMIIAPGPQAILLPQPLKYLGLQETMASLSS”: “soluble”.
As to “MRDIQMVLERWGAWAANNHEDVTWSSIAAGFKGLITSKVKSRPQCCDDDAMIICGCMARLKKNNSDLHDLLVDYYVVGMTFMSLAGKHCCSDGYIGKRLQKAEGIIEGMLMALDIRLEMDIVVNNSNLEHHHHHH”, the “soluble on expression in E. coli” value was “not soluble”.
Next, “INVIISTIISTKRADDFIIAMCNLIQRLTIDSLHIVGDIYDRGPGAHIIMDTLCNYHNFDIQWGNHDILWMGAASGNDSCIANVIRMSMRYGNLGTLEDGYGINLLPLATFAMDTYADDPCTIFMPKMNFADTNYNEKTLRLITQMHKAITIIQFKLEAEIIDRRPEFGMSNRKLLEKIDFERGVFVYEGKEYALRDTNFPTVDPADPYRLTDEERELVEKIHYSFMNSEKLKKHMRCLFTYGGMYLVSNSNLLYHASVPLNEDGSFKHVKIRGKEYWGRKLLDKADQLIRTAYFDEEGEDDKEFAMDYIWYMWCGPEAPLFDKDKMATFERYFLEDKEIQKEKKGYYYTLRNREDICDQILDEFGALGPHSHIINGHVPVKTIQGEQPMKANGKLFVIDGGFSKAYQPETGIAGYTLVYHSHGMQL”: “not soluble”; “MTELAQLQASTEQAAALLKAMSHPKRLLILCMLSGSPGTSAGELTRITGLSASATSQHLARMRDEGLINSQRDAQRILYSIKNEAVNAIIATLKNVYCP”: “not soluble”; “MSLAFVPHVPRHSRGDNPPSASTASPAVLTLTGERTIPDLDIENYWFRRHQVVYQRLAPRCTARDVLEAGCGEGYGADLIACVARQVIAVDYDETAVAHVRSRYPRVEVMQANLAELPLPDASVDVVVNFQVIEHLWDQARFVRECARVLRGSGLLMVSTPNRITFSPGRDTPINPFHTRELNADELTSLLIDAGFVDVAMCGLFHGPRLRDMDARHGGSIIDAQIMRAVAGEGHHHHHH”: “not soluble”.
With “MGSDKIHHHHHHMSQSMVGKHAMWPKENDVIFSISGRAQAAEKAFGMDNVINATIGALMDDSGKLITMKTVYEEYKALDNCEIGAYAALEGQPDYLEAVKKVFFRDYLPEGHIRVLASPGGSGAIKLAVWNYTNEGDEVLTSDWFWSPYVSIAEEANRKVVNYQLFDENRRFNFESFKEKFVNIAEKQGRVFTIINTPAHNPTGYSVADDEWDKILDLSKEVAKDKDKKIIFFVDSAYIDFAGDDDVCRKFFKKFSNLPENVLVLVGFSMSKGFTAYGMRMGAIICISSSEDVAEEFHYSCVHSCRANWSNCNRSAMAVLSNIVNDPKKFKEYEDEKEIYKNMLTRRADVFVKEAERVGLEILPYIAGFFVSIPCDNPKEVCEELTKHNLFAVPLKMGLRFAVCAVSEDKCKKAPSIIKEALESLEVKINN” the entry was “not soluble”.
Regarding “GGSSRHQFDLIMCLKQPGVQTGLLCEKCDGKCPICDSYVRPKRKVRVCENCSFGKQAKNCIICNLNVGVNDAFYCWECCRLGKDKDGCPRILNLGSNRLDRHFEKKKKV”, the “soluble on expression in E. coli” value is recorded as “soluble”.
